Experimental data: paper PMC5240623, “Methylation specific targeting of a chromatin remodeling complex from sponges to humans”

Columns and labels:
HsMBD2 MBD [1] = target: T1, HsMBD2 MBD (Homo sapiens, UniProt Q9UBB5 150-214); assay: SPR; steady state; Rmax 0.93; SPR: 10 mM HEPES pH 7.4, 50 mM NaCl, 3 mM MgCl2, 0.1 mM EDTA, 1 mM DTT, 0.05% polysorbate 20, temperature not stated; NMR conditions not in material; conditions: protein: recombinant; blunt
HsMBD2 MBD [2] = target: T1, HsMBD2 MBD; assay: SPR; steady state; Rmax 6.0; SPR: 10 mM HEPES pH 7.4, 50 mM NaCl, 3 mM MgCl2, 0.1 mM EDTA, 1 mM DTT, 0.05% polysorbate 20, temperature not stated; NMR conditions not in material; conditions: protein: recombinant; blunt

T1 sequence (Q9UBB5 150-214): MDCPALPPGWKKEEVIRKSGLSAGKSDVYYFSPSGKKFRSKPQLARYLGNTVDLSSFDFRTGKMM

B1: mCpG 17 bp, 3'-biotin (dsDNA)
DNA 1: GAGGCGCTCGGCGGCAG
DNA 2: CTGCCGCCGAGCGCCTC
modifications: 5-methyl-C at C9 of strand 1 and C8 of strand 2 (central CpG); two other CpGs unmethylated
In the case of B1, the Kd (HsMBD2 MBD [1]) is reported as 0.33 µM.

B2: CpG(x3) 17 bp, 3'-biotin (dsDNA)
DNA 1: GAGGCGCTCGGCGGCAG
DNA 2: CTGCCGCCGAGCGCCTC
B2 showed a Kd (HsMBD2 MBD [2]) of 81.7 µM.
